# US20210107989A1, “METHODS FOR TREATING CD73HI TUMORS” (CORVUS PHARMACEUTICALS, INC., priority 2017, published 2021)
# T1: CD73 on cells (MDA-MB-231 cells; human PBMC) (human, UniProt P21589 27-549)
# T1 sequence (looked up): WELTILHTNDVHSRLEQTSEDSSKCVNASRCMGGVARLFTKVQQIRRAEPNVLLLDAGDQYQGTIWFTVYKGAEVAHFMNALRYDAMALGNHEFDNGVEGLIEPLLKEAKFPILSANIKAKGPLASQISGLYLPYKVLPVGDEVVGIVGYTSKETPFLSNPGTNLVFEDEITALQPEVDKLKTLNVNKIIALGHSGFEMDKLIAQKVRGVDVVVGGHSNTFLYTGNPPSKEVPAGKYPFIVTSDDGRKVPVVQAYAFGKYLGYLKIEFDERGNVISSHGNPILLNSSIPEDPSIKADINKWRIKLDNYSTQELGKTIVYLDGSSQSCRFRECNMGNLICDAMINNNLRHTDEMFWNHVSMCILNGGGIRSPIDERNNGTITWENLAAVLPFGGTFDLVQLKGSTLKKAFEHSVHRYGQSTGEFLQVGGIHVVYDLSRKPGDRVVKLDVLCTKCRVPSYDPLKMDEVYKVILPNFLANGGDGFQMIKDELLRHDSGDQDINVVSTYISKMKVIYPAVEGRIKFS
# B1: CPX-006 (antibody, human IgG1, kappa, N297Q, V domains shown)
# VH: QVQLVQSGAEVEKPGASVKVSCKASGYTFTSYWITWVRQAPGQGLEWMGDIYPGSGNTNYNEKFKTRVTITADKSTSTAYMELSSLRSEDTAVYYCAKEGGLTTEDYALDYWGQGTLVTVSS
# VL: EIVLTQSPATLSLSPGERATLSCRASKNVSTSGYSYMHWYQQKPGQAPRLLIYLASNLESGIPPRFSGSGYGTDFTLTINNIESEDAAYYFCQHSRELPFTFGQGTKVEIKR
# Biological target: T1, CD73 on cells (MDA-MB-231 cells; human …)
# Experiment: cell-based or functional assay
binder,measurement,value
B1,"EC50, T cell proliferation (human PBMC with AMP)",189 nM
same,"EC50, interferon gamma production (human PBMC with AMP)",137 nM
